In PMC7340262, “Structural insights into the regulation of SigB activity by RsbV and RsbW” (IUCrJ, 2020):

T1: SigB (residues 1–262) (Bacillus subtilis strain 168, UniProt P06574 1-262)
T1 construct: RNA polymerase sigma-B factor SigB, Bacillus subtilis strain 168, residues 1-262; also called alternative sigma factor SigB; source: E. coli BL21 Star (DE3), co-expressed with RsbW (modified pETDuet-1), co-purified as RsbW–SigB complex
T1 sequence (looked up): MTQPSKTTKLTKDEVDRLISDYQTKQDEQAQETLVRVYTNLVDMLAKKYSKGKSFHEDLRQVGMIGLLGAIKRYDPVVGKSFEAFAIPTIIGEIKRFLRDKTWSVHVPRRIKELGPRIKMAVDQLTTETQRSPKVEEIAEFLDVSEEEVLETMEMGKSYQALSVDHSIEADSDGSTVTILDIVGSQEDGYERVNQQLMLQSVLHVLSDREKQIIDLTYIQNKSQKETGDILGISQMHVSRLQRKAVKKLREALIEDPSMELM

B1: RsbW_(5–145) (residues 5–145) (domain or fragment, Bacillus subtilis strain 168, UniProt P17904 5-145, looked up)
chain: ADYIEMKVPAQPEYVGIIRLTLSGVASRMGYTYDEIEDLKIAVSEACTNAVQHAYKEDKNGEVSIRFGVFEDRLEVIVADEGDSFDFDQKQQDLGPYTPSHTVDQLSEGGLGLYLMETLMDEVRVQNHSGVTVAMTKYLNG
notes: Residues 59–64 and 85–113 (monoclinic) or 86–109 (hexagonal) are not visible in the crystal structures; also called truncated RsbW
B2: RsbV (residues 1–109) (natural protein, Bacillus subtilis strain 168, UniProt P17903 1-109, looked up)
chain: MNINVDVKQNENDIQVNIAGEIDVYSAPVLREKLVPLAEQGADLRICLKDVSYMDSTGLGVFVGTFKMVKKQGGSLKLENLSERLIRLFDITGLKDIIDISAKSEGGVQ
notes: Anti-anti-sigma-B factor RsbV, Bacillus subtilis strain 168, residues 1-109 (called full-length); Tag removed with TEV protease; also called full-length RsbV; anti-anti-sigma factor RsbV; source: E. coli BL21 Star (DE3); co-expressed with RsbW (modified pETDuet-1) or expressed alone (modified pET-28b); purified (HisTrap, TEV cleavage, SEC); not shown: His6, N-terminal, cleaved; thioredoxin, …
B3: RsbW (residues 1–160), expressed alone (natural protein, Bacillus subtilis strain 168, UniProt P17904 1-160, looked up)
chain: MKNNADYIEMKVPAQPEYVGIIRLTLSGVASRMGYTYDEIEDLKIAVSEACTNAVQHAYKEDKNGEVSIRFGVFEDRLEVIVADEGDSFDFDQKQQDLGPYTPSHTVDQLSEGGLGLYLMETLMDEVRVQNHSGVTVAMTKYLNGERVDHDTTIKNYETN
notes: Anti-sigma-B factor RsbW, Bacillus subtilis strain 168, residues 1-160; 'RsbV and RsbW alone were similarly expressed and purified following the same procedures'; also called RsbW alone; source: E. coli BL21 Star (DE3), modified pET-28b, purified (HisTrap, TEV cleavage, Superdex 75 SEC); not shown: His6, N-terminal, cleaved; thioredoxin, N-terminal, cleaved
B4: RsbW (residues 1–160), co-expressed with RsbV (natural protein, Bacillus subtilis strain 168, UniProt P17904 1-160, looked up)
chain: B3 chain
notes: Serine-protein kinase / anti-sigma-B factor RsbW, Bacillus subtilis strain 168, residues 1-160 (called full-length); Four copies stand in the RsbV–RsbW octamer; also called full-length RsbW; anti-sigma factor RsbW
B5: RsbW (residues 1–160), co-expressed with SigB (natural protein, Bacillus subtilis strain 168, UniProt P17904 1-160, looked up)
chain: B3 chain
notes: Anti-sigma-B factor RsbW, Bacillus subtilis strain 168, residues 1-160; source: E. coli BL21 Star (DE3), co-expressed with SigB (modified pETDuet-1), co-purified as RsbW–SigB complex

Columns and labels:
[1] = target: the molecule itself; assay: crystal structure; RsbV_(1–104)–RsbW_(5–145) complex; monoclinic crystals (25% PEG 1500, 100 mM SPG pH 8.5, 3.4 Å) and hexagonal crystals (20% PEG 3350, 200 mM potassium formate, excess ADP, 3.1 Å), 20°C
[2] = target: B4; assay: AF4-MALS; co-purified complexes or RsbW alone in phosphate-buffered saline pH 7.4; 50 µl injected; settings: both partners purified
[3] = target: the molecule itself; assay: as above
[4] = target: T1, SigB (residues 1–262); assay: as above; settings: both partners purified

| Binder | stoichiometry N [3] | also measured |
| --- | --- | --- |
| B1 |  | stoichiometry N [1]: 4 |
| B2 |  | stoichiometry N [2]: 1 RsbV per RsbW |
| B3 | 4 |  |
| B4 | 4 |  |
| B5 | 4 | stoichiometry N [4]: 2 RsbW per SigB |
